Paper PMC7383930 (Journal of Medicinal Chemistry, 2020)

Legend:
[1] = molecular target: PSMA on PC3-PIP (PSMA+) prostate cancer cells (Homo sapiens, UniProt Q04609); experiment: cell-based or functional assay
[2] = molecular target: purified extracellular domain of PSMA (prostate-specific membrane antigen), residues 44–750 (human, UniProt Q04609); experiment: SPR; ProteOn XPR36 chip; each NB (0.2 μg) immobilised by amine coupling (sulfo-NHS/EDC, 10 mM sodium acetate pH 5.0); soluble PSMA flowed at 25 μL/min (25-3200 pM for NB7; 2.94-47.00 nM for NB8, NB13, NB37); dissociation in PBST (0.005% Tween); BSA surface subtracted; Langmuir 1:1 kinetic model; 25 °C; conditions: both partners purified
Sequence of purified extracellular domain of PSMA (prostate-specific membrane antigen), residues 44–750 (Q04609 44-750): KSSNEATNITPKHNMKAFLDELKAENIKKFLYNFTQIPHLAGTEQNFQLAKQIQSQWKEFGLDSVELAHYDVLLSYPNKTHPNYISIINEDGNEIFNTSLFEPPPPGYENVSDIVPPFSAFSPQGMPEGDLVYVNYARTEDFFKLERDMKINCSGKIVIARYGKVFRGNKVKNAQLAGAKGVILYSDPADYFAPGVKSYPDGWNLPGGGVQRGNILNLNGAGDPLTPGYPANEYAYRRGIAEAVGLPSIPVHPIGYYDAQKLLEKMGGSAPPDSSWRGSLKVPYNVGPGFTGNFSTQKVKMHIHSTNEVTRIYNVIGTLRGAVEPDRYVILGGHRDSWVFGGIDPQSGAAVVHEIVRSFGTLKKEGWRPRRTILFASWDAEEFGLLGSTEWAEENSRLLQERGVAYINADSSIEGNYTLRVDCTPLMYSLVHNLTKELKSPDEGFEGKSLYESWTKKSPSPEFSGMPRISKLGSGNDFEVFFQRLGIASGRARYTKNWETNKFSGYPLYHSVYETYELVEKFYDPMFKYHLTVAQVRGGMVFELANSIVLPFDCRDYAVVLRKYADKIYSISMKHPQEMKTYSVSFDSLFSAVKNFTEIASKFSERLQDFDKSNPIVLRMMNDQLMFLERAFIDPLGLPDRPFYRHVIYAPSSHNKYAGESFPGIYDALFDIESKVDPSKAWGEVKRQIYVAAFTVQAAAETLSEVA

Sequence of PSMA on PC3-PIP (PSMA+) prostate cancer cells (Q04609 whole entry, the tested form may be a part): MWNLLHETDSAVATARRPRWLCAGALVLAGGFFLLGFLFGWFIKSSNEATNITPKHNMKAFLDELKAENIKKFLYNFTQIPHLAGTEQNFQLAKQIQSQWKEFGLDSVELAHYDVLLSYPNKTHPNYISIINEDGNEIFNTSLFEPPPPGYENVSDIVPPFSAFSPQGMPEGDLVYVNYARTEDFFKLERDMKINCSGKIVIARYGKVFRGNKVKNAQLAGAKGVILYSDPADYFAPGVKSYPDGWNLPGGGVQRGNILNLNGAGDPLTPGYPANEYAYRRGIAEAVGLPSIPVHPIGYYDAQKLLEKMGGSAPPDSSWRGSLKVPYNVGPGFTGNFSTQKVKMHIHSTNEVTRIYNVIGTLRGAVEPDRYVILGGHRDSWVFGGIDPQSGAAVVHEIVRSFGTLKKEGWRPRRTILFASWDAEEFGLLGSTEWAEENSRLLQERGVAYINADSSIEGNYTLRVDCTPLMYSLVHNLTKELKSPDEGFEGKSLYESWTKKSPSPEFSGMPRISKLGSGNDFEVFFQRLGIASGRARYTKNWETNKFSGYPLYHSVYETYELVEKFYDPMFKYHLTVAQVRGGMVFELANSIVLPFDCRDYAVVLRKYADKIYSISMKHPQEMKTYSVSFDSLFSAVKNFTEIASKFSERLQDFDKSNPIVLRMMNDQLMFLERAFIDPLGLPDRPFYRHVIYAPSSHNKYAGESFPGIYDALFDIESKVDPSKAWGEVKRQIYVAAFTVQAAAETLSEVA

Row | Binder | whole-body NIR imaging of mice with PC3-PIP xenografts, AF680-labelled NB: duration until the fluorescent signal was no longer detected [1] [h] | Kd [2] [nM] | koff [2] [s⁻¹] | kon [2] [M⁻¹ s⁻¹]
1 | NB37 (VHH) VHH: QVQLQESGGGSVEAGGSLRLSCARSGWPYSTYSMNWFRQAPGKEREAVAGISSTMSGIIFAESKAGQFTISQDNAKNTVYLQMNNLKPEDTAIYYCAARRDYSLSSSSDDFDYWGQGTQVTVSS | 24 | 3.4 | 7.5e-05 | 22000
2 | NB7 (VHH) VHH: QVQLQESGGGSVQAGGSLRLSCTAPGYTDSNYYMSWFRQAPGKEREWVAGVNTGRGSTSYADSVKGRFTISQDNAKNTMFLQMNSLKPEDTAIYYCAVAACHFCDSLPKTQDEYILWGQGTQVTVSS | – | 0.055 | 3.9e-05 | 710000

The remaining binders from weak to strong by Kd [2], led by results:

Row | whole-body NIR imaging of mice with PC3-PIP xenografts, AF680-labelled NB: duration until the fluorescent signal was no longer detected [1] [h] | Kd [2] [nM] | koff [2] [s⁻¹] | kon [2] [M⁻¹ s⁻¹] | Binder
3 | 32 | 6 | 0.00012 | 20000 | NB8 (VHH) VHH: QVQLQESGGGSVQAGGSLRLSCARSGWPYSTYSMNWFRQAPGKEREAVAGISSTMSGIIFAESKAGQFTISQDNAKNTVYLQMNNLKPEDTAIYYCAARRDYSLSSSSDDFDYWGQGTQVTVSS
4 | 32 | 0.6 | 2.2e-05 | 36000 | NB13 (VHH) VHH: QVQLQESGGGSVQTGGSLRLSCAASGYTASFSWIGYFRQAPGKEREGVAVINVGVGSTYYADSVKGRFTISRDNTENTISLEMNSLKPEDTGLYYCAGSLRWSRPPNPISEDAYNYWGQGTQVTVSS
